Experimental data published in patent US20200392147, “AMIDINO- AND AMINO-ROCAGLATES AS NOVEL TRANSLATION INHIBITORS AND ANTICANCER AGENTS” (TRUSTEES OF BOSTON UNIVERSITY, published 2020).

Assays:
Assay in all cases: FP
Conditions in all cases: tags: His6 (pET15b, E. coli BL21(DE3)); label: FAM
eIF4A2 = eIF4A2 (UniProt P10630 P10630:1-407)
Procedure: (§1) FIGS. 17A-17F. Assessment of eIF4A1 and eIF4A2 RNA binding specificity. 17A. Chemical structure of the most commonly used rocaglates in biological studies 17B. Coomassie blue staining of SDS-PAGE showing eIF4A1 and eIF4A2 preparations used herein. 17C. eIF4A1 and eIF4A2 have similar RNA binding specificities. eIF4A1 or eIF4A2 (500 nM) were incubated in the presence of FAM-labelled RNA (10 nM) having the indicated sequence composition for 30 mins, after which FP measurements were taken. The change in FP obtained relative to vehicle controls is presented. n=3 SD. 17D. Binding of eIF4A1 and eIF4A2 to RNA is equally responsive to CR-1-31-B (23). FAM labeled poly r(AG)₈ (SEQ ID NO: 2) (10 nM) was mixed with the indicated concentrations of eIF4A1 or eIF4A2 either in the presence of vehicle (DMSO) or […] CR-1-31-B(23). Reactions were equilibrated at RT for 30 minutes prior to measuring light polarization. n=3 SD. 17E. […] FAM-labelled RNA was incubated in the presence of 500 nM eIF4A1 and the indicated concentration of CR-1-31-B (23) for 30 min, after which time FP measurements were obtained. The change in FP relative to vehicle controls is presented. n=3±SD. 17F. The extent of eIF4A-RNA binding stimulated by CR-1-31-B 23 scales with polypurine content. FAM-labelled RNA was incubated with 500 nM eIF4A1 and the indicated concentration of CR-1-31-B (23) for 30 min, after which time FP measurements were obtained. The change in FP obtained relative to vehicle controls is presented. n=3 SD.

eIF4A1 [1] = target: T1, eIF4A1 (UniProt P60843 P60843:1-406)
T1 sequence (P60843 whole entry, one chain of several): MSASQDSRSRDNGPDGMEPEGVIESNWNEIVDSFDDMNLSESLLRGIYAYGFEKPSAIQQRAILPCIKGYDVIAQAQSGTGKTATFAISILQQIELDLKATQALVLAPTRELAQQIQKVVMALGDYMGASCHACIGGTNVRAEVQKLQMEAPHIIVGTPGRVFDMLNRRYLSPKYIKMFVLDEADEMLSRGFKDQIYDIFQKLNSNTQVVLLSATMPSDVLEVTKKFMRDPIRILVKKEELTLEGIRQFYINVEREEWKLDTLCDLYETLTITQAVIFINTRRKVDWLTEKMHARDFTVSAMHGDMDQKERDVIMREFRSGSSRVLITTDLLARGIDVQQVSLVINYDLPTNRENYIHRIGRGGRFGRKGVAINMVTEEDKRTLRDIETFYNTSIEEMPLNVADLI
Procedure: as §1

eIF4A1 [2] = target: T1, eIF4A1; remark: listed apart in the source
Procedure: FAM-labelled RNA was incubated in the presence of 500 nM eIF4A1 and the indicated concentration of CR-1-31-B for 30 min, after which time FP measurements were obtained. The change in FP relative to vehicle controls is presented. n=3 SD.
as §1, with “The extent of eIF4A-RNA binding stimulated by CR-1-31-B 23 scales with polypurine content. FAM-labelled RNA was incubated with 500 nM eIF4A1 and the indicated concentration of CR-1-31-B (23) for 30 min, after which time FP measurements were obtained. The change in FP obtained relative to vehicle controls is presented. n=3 SD.” left out

Sequence of eIF4A2 (P10630 whole entry, one chain of several): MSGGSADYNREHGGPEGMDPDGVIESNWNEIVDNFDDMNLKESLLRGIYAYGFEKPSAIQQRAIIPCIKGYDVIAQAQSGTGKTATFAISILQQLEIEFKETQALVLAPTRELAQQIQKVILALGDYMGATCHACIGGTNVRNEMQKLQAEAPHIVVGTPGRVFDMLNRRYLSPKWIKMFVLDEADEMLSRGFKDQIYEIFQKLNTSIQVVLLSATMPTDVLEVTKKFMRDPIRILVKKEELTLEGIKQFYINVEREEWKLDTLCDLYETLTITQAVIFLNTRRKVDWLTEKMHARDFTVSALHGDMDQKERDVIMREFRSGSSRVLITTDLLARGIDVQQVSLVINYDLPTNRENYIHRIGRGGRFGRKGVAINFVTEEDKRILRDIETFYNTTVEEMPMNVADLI

Binder	binding result (eIF4A2)	binding result (eIF4A1 [1])	binding result (eIF4A1 [2])
AGAAGAAGAAGAAGAA (ssRNA) [r(A(GAA)5)]	binds	binds	
AGAGAGAGAGAGAGAG (ssRNA) [poly r(AG)8]	binds		binds
